# Measured values from the Human Domainome abundance scans (Beltran et al. 2025).
# ± gives the uncertainty stated by the source.
# B1: DnaJ homolog subfamily C member 2, residues 451 to 503; numbered along this chain, Q99543 (parent)
# chain: SKNWSEDDLQLLIKAVNLFPAGTNSRWEVIANYMNIHSSSGVKRTAKDVIGKA
# Variants of: B1
# Assay: abundance fitness (aPCA) (normalised: wild type 0, dead -1); higher = more abundant; growth selection in yeast, the domain comes from the species named
# Conditions: Homo sapiens
row,Variant,abundance fitness
1,V29D,0.16 ± 0.092
2,V29K,-0.113 ± 0.089
3,V29N,-0.166 ± 0.13
4,V29P,-0.696 ± 0.098
5,N32Y,-0.507 ± 0.11
6,N32G,-0.2 ± 0.054
7,N32W,-0.38 ± 0.071
8,N32F,-0.542 ± 0.14
9,N32K,-0.083 ± 0.08
10,N32T,-0.13 ± 0.077
11,W27D,-0.419 ± 0.095
12,W27N,-0.581 ± 0.15
13,D7V,-0.054 ± 0.061
14,D7P,-0.045 ± 0.067
15,D7M,0.037 ± 0.077
16,D48F,-1.06 ± 0.18
17,D48R,-0.708 ± 0.066
18,D48C,-0.393 ± 0.1
19,D48A,-0.262 ± 0.071
20,D48W,-0.845 ± 0.1
21,I30R,-0.951 ± 0.063
22,N17A,-0.085 ± 0.061
23,N17L,-0.216 ± 0.062
24,N17I,-0.384 ± 0.095

row,Variant,abundance fitness
1,V42I,0.093 ± 0.092
2,A15C,-0.279 ± 0.1
3,A15Q,-1.03 ± 0.12
4,A15L,-0.61 ± 0.071
5,A15S,-0.214 ± 0.072
6,A15I,-0.982 ± 0.17
7,L11I,0.007 ± 0.1
8,L11S,-0.582 ± 0.065
9,L11C,-0.403 ± 0.083
10,G51Q,-0.043 ± 0.11
11,G51K,0.12 ± 0.11
12,G51L,-0.159 ± 0.071
13,Q10G,-0.141 ± 0.062
14,Q10W,-0.706 ± 0.094
15,Q10E,-0.054 ± 0.072
16,Q10F,-0.483 ± 0.083
17,Q10H,-0.254 ± 0.075
18,Q10V,-0.206 ± 0.06
19,S5M,-0.514 ± 0.48
20,N35V,-0.815 ± 0.074
21,N35G,-0.646 ± 0.057
22,N35Q,-0.558 ± 0.092
23,A31E,-0.859 ± 0.097
24,A31T,0.051 ± 0.066

row,Variant,abundance fitness
1,A31V,-0.397 ± 0.057
2,A31Q,-0.549 ± 0.09
3,A31G,-0.607 ± 0.053
4,A31D,-0.831 ± 0.11
5,E28P,-0.627 ± 0.12
6,E28D,-0.089 ± 0.14
7,E28M,-0.44 ± 0.089
8,E28C,-0.49 ± 0.13
9,P20S,-0.411 ± 0.059
10,P20M,-0.955 ± 0.094
11,P20N,-0.292 ± 0.1
12,P20A,-0.571 ± 0.074
13,P20E,-0.358 ± 0.09
14,P20V,-0.772 ± 0.074
15,L9M,0.036 ± 0.078
16,L9P,-0.724 ± 0.11
17,L9G,-0.143 ± 0.056
18,K14Q,-0.308 ± 0.071
19,K14R,-0.088 ± 0.053
20,K14Y,-0.207 ± 0.083
21,K14S,-0.225 ± 0.062
22,F19I,-0.29 ± 0.094
23,F19H,-0.093 ± 0.14
24,F19R,-0.91 ± 0.094

row,Variant,abundance fitness
1,F19T,-0.456 ± 0.083
2,L18Y,-0.173 ± 0.096
3,L18W,-0.547 ± 0.071
4,L18P,-0.807 ± 0.14
5,L18K,-0.268 ± 0.092
6,K43W,-0.259 ± 0.069
7,K43T,-0.006 ± 0.084
8,K43I,-0.147 ± 0.12
9,K47Y,-0.212 ± 0.11
10,K47E,0 ± 0.11
11,A46H,-0.309 ± 0.09
12,A46F,-0.366 ± 0.091
13,A46R,-0.222 ± 0.061
14,A46N,-0.567 ± 0.1
15,G22A,-0.064 ± 0.056
16,G22V,-0.28 ± 0.056
17,G22I,-0.194 ± 0.094
18,D8I,-0.534 ± 0.091
19,D8R,-0.453 ± 0.064
20,N3I,0.021 ± 0.1
21,N3S,-0.234 ± 0.071
22,N3F,-0.037 ± 0.14
23,E6C,0.051 ± 0.13
24,E6Q,-0.055 ± 0.15

row,Variant,abundance fitness
1,E6Y,-0.186 ± 0.16
2,E6V,-0.121 ± 0.12
3,E6R,-0.543 ± 0.16
4,I36T,-0.007 ± 0.072
5,I36Q,0.079 ± 0.11
6,S38Q,-0.176 ± 0.091
7,S1H,-0.348 ± 0.41
8,S1L,-0.32 ± 0.11
9,S1A,-0.372 ± 0.13
10,K2C,-0.274 ± 0.1
11,K2D,-0.044 ± 0.096
12,K2L,-0.287 ± 0.067
13,A21N,-0.217 ± 0.093
14,A21R,-0.054 ± 0.055
15,A21P,-0.094 ± 0.082
16,A21S,-0.029 ± 0.065
17,V49C,-0.031 ± 0.1
18,W4F,-0.104 ± 0.16
19,W4S,-0.599 ± 0.065
20,W4Y,-0.341 ± 0.097
21,K52M,-0.247 ± 0.15
22,K52D,-0.666 ± 0.11
23,K52T,-0.197 ± 0.09
24,S40D,-0.282 ± 0.085

row,Variant,abundance fitness
1,S40Q,-0.158 ± 0.072
2,S40P,-0.52 ± 0.091
3,S40C,-0.217 ± 0.072
4,S40V,-0.484 ± 0.07
5,S40M,-0.536 ± 0.12
6,V16H,-0.25 ± 0.1
7,V16D,-0.371 ± 0.094
8,V16N,-0.071 ± 0.096
9,I13K,0.053 ± 0.074
10,A53L,-0.634 ± 0.24
11,A53G,-0.112 ± 0.21
12,G41M,-0.035 ± 0.086
13,G41F,0.064 ± 0.13
14,G41K,0.001 ± 0.077
15,I50D,-0.224 ± 0.096
16,I50H,-0.146 ± 0.1
17,I50C,-0.228 ± 0.11
18,I50V,0.03 ± 0.066
19,L12T,-0.907 ± 0.087
20,L12I,-0.456 ± 0.096
21,L12E,-0.952 ± 0.092
22,L12S,-0.802 ± 0.067
23,T23H,-0.147 ± 0.15
24,T23C,-0.353 ± 0.15

row,Variant,abundance fitness
1,S25D,0.062 ± 0.083
2,S25F,-0.272 ± 0.081
3,S25A,-0.094 ± 0.061
4,S25L,-0.239 ± 0.063
5,M34C,-0.136 ± 0.077
6,M34L,-0.056 ± 0.064
7,M34A,-0.895 ± 0.071
8,M34P,-0.553 ± 0.09
9,Y33C,-0.996 ± 0.12
10,Y33D,-0.977 ± 0.12
11,Y33I,-1.02 ± 0.2
12,Y33M,-0.882 ± 0.1
13,N24F,-0.101 ± 0.097
14,N24T,-0.024 ± 0.089
15,N24R,-0.045 ± 0.06
16,N24E,0.07 ± 0.079
17,N24S,-0.043 ± 0.066
18,S39G,0.016 ± 0.061
19,S39M,-0.122 ± 0.084
20,S39A,0.122 ± 0.067
21,S39L,-0.095 ± 0.058
22,S39D,0.03 ± 0.093
23,R26A,-0.557 ± 0.48
